Source: patent US20070077617

Measured: relative cleavage efficiency

Sequence of fusion protein PRA (chain, as listed by the source): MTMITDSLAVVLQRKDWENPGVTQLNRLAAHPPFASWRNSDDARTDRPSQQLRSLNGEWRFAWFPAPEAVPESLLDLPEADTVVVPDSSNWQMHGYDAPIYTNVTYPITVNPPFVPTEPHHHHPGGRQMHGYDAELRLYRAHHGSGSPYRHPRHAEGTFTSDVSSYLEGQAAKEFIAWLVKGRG
Sequence of fusion protein PRQ (chain, as listed by the source): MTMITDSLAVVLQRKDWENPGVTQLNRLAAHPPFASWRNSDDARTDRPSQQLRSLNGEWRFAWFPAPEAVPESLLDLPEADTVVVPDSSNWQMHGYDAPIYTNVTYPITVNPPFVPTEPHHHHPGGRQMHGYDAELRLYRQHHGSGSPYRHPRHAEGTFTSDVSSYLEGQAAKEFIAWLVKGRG
Sequence of fusion protein PRH (chain, as listed by the source): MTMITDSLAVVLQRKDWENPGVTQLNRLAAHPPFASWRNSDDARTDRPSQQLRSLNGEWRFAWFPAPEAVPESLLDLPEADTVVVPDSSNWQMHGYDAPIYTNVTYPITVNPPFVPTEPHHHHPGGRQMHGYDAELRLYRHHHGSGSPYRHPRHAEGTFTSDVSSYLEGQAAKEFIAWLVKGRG
Sequence of fusion protein PRL (chain, as listed by the source): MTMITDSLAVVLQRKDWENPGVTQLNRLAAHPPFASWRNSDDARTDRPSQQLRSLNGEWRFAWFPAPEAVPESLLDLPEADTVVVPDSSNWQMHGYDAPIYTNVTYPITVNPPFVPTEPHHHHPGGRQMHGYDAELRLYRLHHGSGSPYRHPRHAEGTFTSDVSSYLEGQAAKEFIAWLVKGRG
Sequence of fusion protein PRG (chain, as listed by the source): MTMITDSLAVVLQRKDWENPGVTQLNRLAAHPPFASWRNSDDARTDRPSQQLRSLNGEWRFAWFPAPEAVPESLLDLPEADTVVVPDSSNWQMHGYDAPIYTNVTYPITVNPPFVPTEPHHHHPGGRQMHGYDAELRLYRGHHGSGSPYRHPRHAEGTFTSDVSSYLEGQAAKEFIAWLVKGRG
Sequence of fusion protein PRY (chain, as listed by the source): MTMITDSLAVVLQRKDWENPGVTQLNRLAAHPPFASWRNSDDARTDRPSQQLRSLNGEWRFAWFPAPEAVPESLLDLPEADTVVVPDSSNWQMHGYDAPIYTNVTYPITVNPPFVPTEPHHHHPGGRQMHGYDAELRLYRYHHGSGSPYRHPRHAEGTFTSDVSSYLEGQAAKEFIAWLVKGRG
Sequence of fusion protein PRE (chain, as listed by the source): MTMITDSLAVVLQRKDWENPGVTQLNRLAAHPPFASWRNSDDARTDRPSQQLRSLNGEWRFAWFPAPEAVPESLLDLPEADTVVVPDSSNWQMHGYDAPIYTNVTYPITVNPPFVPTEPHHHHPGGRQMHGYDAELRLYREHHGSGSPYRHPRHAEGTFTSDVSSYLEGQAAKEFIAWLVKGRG
Sequence of fusion protein PRF (chain, as listed by the source): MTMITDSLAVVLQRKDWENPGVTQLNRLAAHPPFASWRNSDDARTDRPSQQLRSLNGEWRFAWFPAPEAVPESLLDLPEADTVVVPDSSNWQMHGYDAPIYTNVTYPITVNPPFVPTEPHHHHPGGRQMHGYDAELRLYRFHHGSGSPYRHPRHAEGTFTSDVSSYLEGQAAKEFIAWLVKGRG
Sequence of fusion protein PRD (chain, as listed by the source): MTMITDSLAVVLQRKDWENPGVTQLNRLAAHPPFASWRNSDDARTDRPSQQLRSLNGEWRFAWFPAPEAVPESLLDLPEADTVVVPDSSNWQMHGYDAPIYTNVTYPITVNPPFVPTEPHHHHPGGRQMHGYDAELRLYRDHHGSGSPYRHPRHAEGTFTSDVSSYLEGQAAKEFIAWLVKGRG
Sequence of fusion protein PRS (chain, as listed by the source): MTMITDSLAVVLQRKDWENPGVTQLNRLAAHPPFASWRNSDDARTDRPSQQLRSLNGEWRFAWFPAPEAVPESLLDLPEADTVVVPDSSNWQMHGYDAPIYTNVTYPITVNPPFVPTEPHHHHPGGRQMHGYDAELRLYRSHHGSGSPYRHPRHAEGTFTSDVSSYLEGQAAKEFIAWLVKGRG
Sequence of fusion protein PRW (chain, as listed by the source): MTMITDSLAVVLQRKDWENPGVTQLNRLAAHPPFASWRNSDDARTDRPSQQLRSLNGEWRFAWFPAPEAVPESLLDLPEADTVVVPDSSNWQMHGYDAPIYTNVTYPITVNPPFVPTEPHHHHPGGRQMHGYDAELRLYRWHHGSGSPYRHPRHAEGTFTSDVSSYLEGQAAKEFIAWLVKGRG
Sequence of fusion protein PRC (chain, as listed by the source): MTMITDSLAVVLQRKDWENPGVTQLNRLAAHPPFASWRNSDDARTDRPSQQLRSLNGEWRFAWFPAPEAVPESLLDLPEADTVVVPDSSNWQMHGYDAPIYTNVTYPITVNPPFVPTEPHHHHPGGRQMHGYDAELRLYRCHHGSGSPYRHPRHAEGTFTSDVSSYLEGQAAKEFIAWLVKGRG
Sequence of fusion protein PRM (chain, as listed by the source): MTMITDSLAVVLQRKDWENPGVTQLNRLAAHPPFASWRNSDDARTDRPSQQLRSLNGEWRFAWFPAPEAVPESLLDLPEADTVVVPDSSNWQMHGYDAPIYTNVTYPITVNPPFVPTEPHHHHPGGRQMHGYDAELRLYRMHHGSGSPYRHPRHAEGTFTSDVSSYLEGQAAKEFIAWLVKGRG
Sequence of fusion protein PRT (chain, as listed by the source): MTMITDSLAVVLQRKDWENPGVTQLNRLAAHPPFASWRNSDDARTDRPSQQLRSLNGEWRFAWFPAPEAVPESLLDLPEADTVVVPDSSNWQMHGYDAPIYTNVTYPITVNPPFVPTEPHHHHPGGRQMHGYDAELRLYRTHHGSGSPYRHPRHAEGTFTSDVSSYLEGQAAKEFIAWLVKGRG
Sequence of fusion protein PRR (chain, as listed by the source): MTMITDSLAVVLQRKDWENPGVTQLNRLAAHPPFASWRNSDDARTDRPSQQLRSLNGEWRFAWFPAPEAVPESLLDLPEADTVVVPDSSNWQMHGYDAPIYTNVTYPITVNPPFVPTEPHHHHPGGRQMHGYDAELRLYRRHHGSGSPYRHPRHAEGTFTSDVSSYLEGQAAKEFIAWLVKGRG
Sequence of fusion protein PRI (chain, as listed by the source): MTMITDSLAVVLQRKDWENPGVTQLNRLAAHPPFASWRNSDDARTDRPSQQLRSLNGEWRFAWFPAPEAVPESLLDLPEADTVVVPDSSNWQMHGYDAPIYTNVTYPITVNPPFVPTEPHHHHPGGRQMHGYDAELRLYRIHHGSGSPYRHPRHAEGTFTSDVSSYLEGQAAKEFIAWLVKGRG
Sequence of fusion protein PRN (chain, as listed by the source): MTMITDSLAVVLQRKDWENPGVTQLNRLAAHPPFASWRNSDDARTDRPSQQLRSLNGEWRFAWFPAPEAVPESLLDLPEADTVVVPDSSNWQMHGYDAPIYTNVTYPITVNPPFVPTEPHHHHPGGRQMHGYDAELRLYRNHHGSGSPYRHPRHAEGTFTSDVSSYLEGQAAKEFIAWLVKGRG
Sequence of fusion protein PRK (chain, as listed by the source): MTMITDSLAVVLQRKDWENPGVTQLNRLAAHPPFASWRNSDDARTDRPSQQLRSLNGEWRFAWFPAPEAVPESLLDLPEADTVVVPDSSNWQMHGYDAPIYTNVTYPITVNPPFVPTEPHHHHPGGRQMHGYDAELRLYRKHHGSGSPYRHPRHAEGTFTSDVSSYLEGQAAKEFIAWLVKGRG

B1: OmpT protease variant OmpT D97P (protein)
chain: STETLSFTPDNINADISLGTLSGKTKERVYLAEEGGRKVSQLDWKFNNAAIIKGAINWDLMPQISIGAAGWTTLGSRGGNMVDQDWMDSSNPGTWTPESRHPDTQLNYANEFDLNIKGWLLNEPNYRLGLMAGYQESRYSFTARGGSYIYSSEEGFRDDIGSFPNGERAIGYKQRFKMPYIGLTGSYRYEDFELGGTFKYSGWVESSDNDEHYDPGKRITYRSKVKDQNYYSVAVNAGYYVTPNAKVYVEGAWNRVTNKKGNTSLYDHNNNTSDYSKNGAGIENYNFITTAGLKYTF
less than 3.0%: fusion protein PRS | fusion protein PRN | fusion protein PRC | fusion protein PRD | fusion protein PRK | fusion protein PRH | fusion protein PRR | fusion protein PRA | fusion protein PRT | fusion protein PRE | fusion protein PRF | fusion protein PRQ | fusion protein PRG | fusion protein PRP | fusion protein PRW | fusion protein PRL | fusion protein PRM | fusion protein PRY | fusion protein PRI

B2: OmpT protease variant OmpT D97W (protein)
chain: STETLSFTPDNINADISLGTLSGKTKERVYLAEEGGRKVSQLDWKFNNAAIIKGAINWDLMPQISIGAAGWTTLGSRGGNMVDQDWMDSSNPGTWTWESRHPDTQLNYANEFDLNIKGWLLNEPNYRLGLMAGYQESRYSFTARGGSYIYSSEEGFRDDIGSFPNGERAIGYKQRFKMPYIGLTGSYRYEDFELGGTFKYSGWVESSDNDEHYDPGKRITYRSKVKDQNYYSVAVNAGYYVTPNAKVYVEGAWNRVTNKKGNTSLYDHNNNTSDYSKNGAGIENYNFITTAGLKYTF
less than 3.0%: fusion protein PRS | fusion protein PRN | fusion protein PRC | fusion protein PRD | fusion protein PRK | fusion protein PRH | fusion protein PRR | fusion protein PRA | fusion protein PRT | fusion protein PRE | fusion protein PRF | fusion protein PRQ | fusion protein PRG | fusion protein PRP | fusion protein PRW | fusion protein PRL | fusion protein PRM | fusion protein PRY | fusion protein PRI

B3: OmpT protease variant OmpT D97R (protein)
chain: STETLSFTPDNINADISLGTLSGKTKERVYLAEEGGRKVSQLDWKFNNAAIIKGAINWDLMPQISIGAAGWTTLGSRGGNMVDQDWMDSSNPGTWTRESRHPDTQLNYANEFDLNIKGWLLNEPNYRLGLMAGYQESRYSFTARGGSYIYSSEEGFRDDIGSFPNGERAIGYKQRFKMPYIGLTGSYRYEDFELGGTFKYSGWVESSDNDEHYDPGKRITYRSKVKDQNYYSVAVNAGYYVTPNAKVYVEGAWNRVTNKKGNTSLYDHNNNTSDYSKNGAGIENYNFITTAGLKYTF
less than 3.0%: fusion protein PRS | fusion protein PRN | fusion protein PRC | fusion protein PRD | fusion protein PRK | fusion protein PRH | fusion protein PRR | fusion protein PRA | fusion protein PRT | fusion protein PRE | fusion protein PRF | fusion protein PRQ | fusion protein PRG | fusion protein PRP | fusion protein PRW | fusion protein PRL | fusion protein PRM | fusion protein PRY | fusion protein PRI

B4: OmpT protease variant OmpT D97Y (protein)
chain: STETLSFTPDNINADISLGTLSGKTKERVYLAEEGGRKVSQLDWKFNNAAIIKGAINWDLMPQISIGAAGWTTLGSRGGNMVDQDWMDSSNPGTWTYESRHPDTQLNYANEFDLNIKGWLLNEPNYRLGLMAGYQESRYSFTARGGSYIYSSEEGFRDDIGSFPNGERAIGYKQRFKMPYIGLTGSYRYEDFELGGTFKYSGWVESSDNDEHYDPGKRITYRSKVKDQNYYSVAVNAGYYVTPNAKVYVEGAWNRVTNKKGNTSLYDHNNNTSDYSKNGAGIENYNFITTAGLKYTF
less than 3.0%: fusion protein PRS | fusion protein PRN | fusion protein PRC | fusion protein PRD | fusion protein PRK | fusion protein PRH | fusion protein PRR | fusion protein PRA | fusion protein PRT | fusion protein PRE | fusion protein PRF | fusion protein PRQ | fusion protein PRG | fusion protein PRP | fusion protein PRW | fusion protein PRL | fusion protein PRM | fusion protein PRY | fusion protein PRI

B5: OmpT protease variant OmpT D97G (protein)
chain: STETLSFTPDNINADISLGTLSGKTKERVYLAEEGGRKVSQLDWKFNNAAIIKGAINWDLMPQISIGAAGWTTLGSRGGNMVDQDWMDSSNPGTWTGESRHPDTQLNYANEFDLNIKGWLLNEPNYRLGLMAGYQESRYSFTARGGSYIYSSEEGFRDDIGSFPNGERAIGYKQRFKMPYIGLTGSYRYEDFELGGTFKYSGWVESSDNDEHYDPGKRITYRSKVKDQNYYSVAVNAGYYVTPNAKVYVEGAWNRVTNKKGNTSLYDHNNNTSDYSKNGAGIENYNFITTAGLKYTF
less than 3.0%: fusion protein PRS | fusion protein PRN | fusion protein PRC | fusion protein PRD | fusion protein PRK | fusion protein PRH | fusion protein PRR | fusion protein PRA | fusion protein PRT | fusion protein PRE | fusion protein PRF | fusion protein PRQ | fusion protein PRG | fusion protein PRP | fusion protein PRW | fusion protein PRL | fusion protein PRM | fusion protein PRY | fusion protein PRI

B6: OmpT protease variant OmpT D97K (protein)
chain: STETLSFTPDNINADISLGTLSGKTKERVYLAEEGGRKVSQLDWKFNNAAIIKGAINWDLMPQISIGAAGWTTLGSRGGNMVDQDWMDSSNPGTWTKESRHPDTQLNYANEFDLNIKGWLLNEPNYRLGLMAGYQESRYSFTARGGSYIYSSEEGFRDDIGSFPNGERAIGYKQRFKMPYIGLTGSYRYEDFELGGTFKYSGWVESSDNDEHYDPGKRITYRSKVKDQNYYSVAVNAGYYVTPNAKVYVEGAWNRVTNKKGNTSLYDHNNNTSDYSKNGAGIENYNFITTAGLKYTF
less than 3.0%: fusion protein PRS | fusion protein PRN | fusion protein PRC | fusion protein PRD | fusion protein PRK | fusion protein PRH | fusion protein PRR | fusion protein PRA | fusion protein PRT | fusion protein PRE | fusion protein PRF | fusion protein PRQ | fusion protein PRG | fusion protein PRP | fusion protein PRW | fusion protein PRL | fusion protein PRM | fusion protein PRY | fusion protein PRI
